Laboratory results reported in article PMC12867151.

Molecular target: human immune complexes (ICs): heat-aggregated human IgG (human)

neutrophil adhesion on IC-coated microcapillaries with adhered platelets at 2 dyn/cm^2; neutrophils preincubated with a blocking antibody against FcγRIIIB; inhibition against the isotype control (% inhibition of neutrophil adhesion) | neutrophil adhesion on IC-coated microcapillaries with adhered platelets at 2 dyn/cm^2; neutrophils preincubated with a blocking antibody against FcγRIIA; inhibition against the isotype control (% inhibition of neutrophil adhesion) | Substance
63.8 |  | FcγRIIIB, human, on neutrophils (from UniProt O75015 17-200) (receptor)
 | 86.3 | Fcγ receptor 2a (FcγRIIA), human, on human platelets (from UniProt P12318 34-317)
